{
  "source": "paper PMC3125604",
  "origin": "cited, not measured here",
  "target": "Prolactin receptor (site 2) (Homo sapiens) (UniProt P16471)",
  "sequence (P16471 25-234)": "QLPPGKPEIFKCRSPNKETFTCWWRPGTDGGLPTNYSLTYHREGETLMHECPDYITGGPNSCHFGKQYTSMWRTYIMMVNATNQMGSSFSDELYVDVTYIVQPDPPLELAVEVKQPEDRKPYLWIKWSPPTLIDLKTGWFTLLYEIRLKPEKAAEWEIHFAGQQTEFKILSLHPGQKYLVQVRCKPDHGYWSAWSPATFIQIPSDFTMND",
  "test": "surface plasmon resonance",
  "data": [
    {"substance": "Prolactin (hPRL) (from UniProt P01236)", "values": [
      {"measurement": "Kd", "result": 33, "unit": "µM"}
    ]}
  ]
}
